In US20260070987A1:

Target: equine FcRn (large alpha subunit p51) / equine beta-2-microglobulin complex, biotinylated (equine) (UniProt P30441)
Assay: SPR (Biacore), pH 6

Sequence of UniProt P30441 (P30441 21-118, one chain of several): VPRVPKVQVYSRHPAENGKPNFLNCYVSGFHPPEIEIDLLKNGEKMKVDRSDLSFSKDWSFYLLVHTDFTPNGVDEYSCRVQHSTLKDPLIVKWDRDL

| Binder | Kd [nM] |
| --- | --- |
| equine IgG4 M428R (antibody, part only; not given: variable domains, not shown: another chain or arm of the molecule) constant: ASTTAPKVFPLASHSAATSGSTVALGCLVSSYFPEPVTVSWNSGALTSGVHTFPSVLQSSGLYSLSSMVTVPASSLKSQTYICNVAHPASSTKVDKKIVIKECNGGCPAECLQVGPSVFIFPPKPKDVLMISRTPTVTCVVVDVGHDFPDVQFNWYVDGVETHTATTEPKQEQFNSTYRVVSVLPIQHKDWLSGKEFKCKVNNKALPAPVERTISKPTGQPREPQVYVLAPHRDELSKNKVSVTCLVKDFYPTDIDIEWKSNGQPEPETKYSTTPAQLDSDGSYFLYSKLTVETNRWQQGTTFTCAVRHEALHNHYTEKSVSKSPGK | 93.1 |
| equine IgG4 M428S (antibody, part only; not given: variable domains, not shown: another chain or arm of the molecule) constant: ASTTAPKVFPLASHSAATSGSTVALGCLVSSYFPEPVTVSWNSGALTSGVHTFPSVLQSSGLYSLSSMVTVPASSLKSQTYICNVAHPASSTKVDKKIVIKECNGGCPAECLQVGPSVFIFPPKPKDVLMISRTPTVTCVVVDVGHDFPDVQFNWYVDGVETHTATTEPKQEQFNSTYRVVSVLPIQHKDWLSGKEFKCKVNNKALPAPVERTISKPTGQPREPQVYVLAPHRDELSKNKVSVTCLVKDFYPTDIDIEWKSNGQPEPETKYSTTPAQLDSDGSYFLYSKLTVETNRWQQGTTFTCAVSHEALHNHYTEKSVSKSPGK | 40.6 |
| equine IgG4 M428T (antibody, part only; not given: variable domains, not shown: another chain or arm of the molecule) constant: ASTTAPKVFPLASHSAATSGSTVALGCLVSSYFPEPVTVSWNSGALTSGVHTFPSVLQSSGLYSLSSMVTVPASSLKSQTYICNVAHPASSTKVDKKIVIKECNGGCPAECLQVGPSVFIFPPKPKDVLMISRTPTVTCVVVDVGHDFPDVQFNWYVDGVETHTATTEPKQEQFNSTYRVVSVLPIQHKDWLSGKEFKCKVNNKALPAPVERTISKPTGQPREPQVYVLAPHRDELSKNKVSVTCLVKDFYPTDIDIEWKSNGQPEPETKYSTTPAQLDSDGSYFLYSKLTVETNRWQQGTTFTCAVTHEALHNHYTEKSVSKSPGK | 71.8 |
| equine IgG4 M428V (antibody, part only; not given: Variable domains, not shown: another chain or arm of the molecule) constant: ASTTAPKVFPLASHSAATSGSTVALGCLVSSYFPEPVTVSWNSGALTSGVHTFPSVLQSSGLYSLSSMVTVPASSLKSQTYICNVAHPASSTKVDKKIVIKECNGGCPAECLQVGPSVFIFPPKPKDVLMISRTPTVTCVVVDVGHDFPDVQFNWYVDGVETHTATTEPKQEQFNSTYRVVSVLPIQHKDWLSGKEFKCKVNNKALPAPVERTISKPTGQPREPQVYVLAPHRDELSKNKVSVTCLVKDFYPTDIDIEWKSNGQPEPETKYSTTPAQLDSDGSYFLYSKLTVETNRWQQGTTFTCAVVHEALHNHYTEKSVSKSPGK | 75.2 |
| equine IgG4 M428W (antibody, part only; not given: variable domains, not shown: another chain or arm of the molecule) constant: ASTTAPKVFPLASHSAATSGSTVALGCLVSSYFPEPVTVSWNSGALTSGVHTFPSVLQSSGLYSLSSMVTVPASSLKSQTYICNVAHPASSTKVDKKIVIKECNGGCPAECLQVGPSVFIFPPKPKDVLMISRTPTVTCVVVDVGHDFPDVQFNWYVDGVETHTATTEPKQEQFNSTYRVVSVLPIQHKDWLSGKEFKCKVNNKALPAPVERTISKPTGQPREPQVYVLAPHRDELSKNKVSVTCLVKDFYPTDIDIEWKSNGQPEPETKYSTTPAQLDSDGSYFLYSKLTVETNRWQQGTTFTCAVWHEALHNHYTEKSVSKSPGK | 31 |
| equine IgG4 M428Y (antibody, part only; not given: variable domains, not shown: another chain or arm of the molecule) constant: ASTTAPKVFPLASHSAATSGSTVALGCLVSSYFPEPVTVSWNSGALTSGVHTFPSVLQSSGLYSLSSMVTVPASSLKSQTYICNVAHPASSTKVDKKIVIKECNGGCPAECLQVGPSVFIFPPKPKDVLMISRTPTVTCVVVDVGHDFPDVQFNWYVDGVETHTATTEPKQEQFNSTYRVVSVLPIQHKDWLSGKEFKCKVNNKALPAPVERTISKPTGQPREPQVYVLAPHRDELSKNKVSVTCLVKDFYPTDIDIEWKSNGQPEPETKYSTTPAQLDSDGSYFLYSKLTVETNRWQQGTTFTCAVYHEALHNHYTEKSVSKSPGK | 30.8 |
| equine IgG1 T286P (antibody, part only; not given: variable domains, not shown: another chain or arm of the molecule) constant: ASTTAPKVFALAPGCGTTSDSTVALGCLVSGYFPEPVKVSWNSGSLTSGVHTFPSVLQSSGFYSLSSMVTVPASTWTSETYICNVVHAASNFKVDKRIEPIPDNHQKVCDMSKCPKCPAPELLGGPSVFIFPPNPKDTLMITRTPEVTCVVVDVSQENPDVKFNWYMDGVEVRPATTRPKEEQFNSTYRVVSVLRIQHQDWLSGKEFKCKVNNQALPQPIERTITKTKGRSQEPQVYVLAPHPDELSKSKVSVTCLVKDFYPPEINIEWQSNGQPELETKYSTTQAQQDSDGSYFLYSKLSVDRNRWQQGTTFTCGVMHEALHNHYTQKNVSKNPGK | 14.6 |
| equine IgG4 N434A (antibody, part only; not given: Variable domains, not shown: another chain or arm of the molecule) constant: ASTTAPKVFPLASHSAATSGSTVALGCLVSSYFPEPVTVSWNSGALTSGVHTFPSVLQSSGLYSLSSMVTVPASSLKSQTYICNVAHPASSTKVDKKIVIKECNGGCPAECLQVGPSVFIFPPKPKDVLMISRTPTVTCVVVDVGHDFPDVQFNWYVDGVETHTATTEPKQEQFNSTYRVVSVLPIQHKDWLSGKEFKCKVNNKALPAPVERTISKPTGQPREPQVYVLAPHRDELSKNKVSVTCLVKDFYPTDIDIEWKSNGQPEPETKYSTTPAQLDSDGSYFLYSKLTVETNRWQQGTTFTCAVMHEALHAHYTEKSVSKSPGK | 17.4 |
| equine IgG4 N434C (antibody, part only; not given: Variable domains, not shown: another chain or arm of the molecule) constant: ASTTAPKVFPLASHSAATSGSTVALGCLVSSYFPEPVTVSWNSGALTSGVHTFPSVLQSSGLYSLSSMVTVPASSLKSQTYICNVAHPASSTKVDKKIVIKECNGGCPAECLQVGPSVFIFPPKPKDVLMISRTPTVTCVVVDVGHDFPDVQFNWYVDGVETHTATTEPKQEQFNSTYRVVSVLPIQHKDWLSGKEFKCKVNNKALPAPVERTISKPTGQPREPQVYVLAPHRDELSKNKVSVTCLVKDFYPTDIDIEWKSNGQPEPETKYSTTPAQLDSDGSYFLYSKLTVETNRWQQGTTFTCAVMHEALHCHYTEKSVSKSPGK | 113 |
| equine IgG4 N434D (antibody, part only; not given: Variable domains, not shown: another chain or arm of the molecule) constant: ASTTAPKVFPLASHSAATSGSTVALGCLVSSYFPEPVTVSWNSGALTSGVHTFPSVLQSSGLYSLSSMVTVPASSLKSQTYICNVAHPASSTKVDKKIVIKECNGGCPAECLQVGPSVFIFPPKPKDVLMISRTPTVTCVVVDVGHDFPDVQFNWYVDGVETHTATTEPKQEQFNSTYRVVSVLPIQHKDWLSGKEFKCKVNNKALPAPVERTISKPTGQPREPQVYVLAPHRDELSKNKVSVTCLVKDFYPTDIDIEWKSNGQPEPETKYSTTPAQLDSDGSYFLYSKLTVETNRWQQGTTFTCAVMHEALHDHYTEKSVSKSPGK | 38.5 |
| equine IgG4 N434E (antibody, part only; not given: variable domains, not shown: another chain or arm of the molecule) constant: ASTTAPKVFPLASHSAATSGSTVALGCLVSSYFPEPVTVSWNSGALTSGVHTFPSVLQSSGLYSLSSMVTVPASSLKSQTYICNVAHPASSTKVDKKIVIKECNGGCPAECLQVGPSVFIFPPKPKDVLMISRTPTVTCVVVDVGHDFPDVQFNWYVDGVETHTATTEPKQEQFNSTYRVVSVLPIQHKDWLSGKEFKCKVNNKALPAPVERTISKPTGQPREPQVYVLAPHRDELSKNKVSVTCLVKDFYPTDIDIEWKSNGQPEPETKYSTTPAQLDSDGSYFLYSKLTVETNRWQQGTTFTCAVMHEALHEHYTEKSVSKSPGK | 71.3 |
| equine IgG4 N434F (antibody, part only; not given: variable domains, not shown: another chain or arm of the molecule) constant: ASTTAPKVFPLASHSAATSGSTVALGCLVSSYFPEPVTVSWNSGALTSGVHTFPSVLQSSGLYSLSSMVTVPASSLKSQTYICNVAHPASSTKVDKKIVIKECNGGCPAECLQVGPSVFIFPPKPKDVLMISRTPTVTCVVVDVGHDFPDVQFNWYVDGVETHTATTEPKQEQFNSTYRVVSVLPIQHKDWLSGKEFKCKVNNKALPAPVERTISKPTGQPREPQVYVLAPHRDELSKNKVSVTCLVKDFYPTDIDIEWKSNGQPEPETKYSTTPAQLDSDGSYFLYSKLTVETNRWQQGTTFTCAVMHEALHFHYTEKSVSKSPGK | 4.4 |
| equine IgG4 N434G (antibody, part only; not given: variable domains, not shown: another chain or arm of the molecule) constant: ASTTAPKVFPLASHSAATSGSTVALGCLVSSYFPEPVTVSWNSGALTSGVHTFPSVLQSSGLYSLSSMVTVPASSLKSQTYICNVAHPASSTKVDKKIVIKECNGGCPAECLQVGPSVFIFPPKPKDVLMISRTPTVTCVVVDVGHDFPDVQFNWYVDGVETHTATTEPKQEQFNSTYRVVSVLPIQHKDWLSGKEFKCKVNNKALPAPVERTISKPTGQPREPQVYVLAPHRDELSKNKVSVTCLVKDFYPTDIDIEWKSNGQPEPETKYSTTPAQLDSDGSYFLYSKLTVETNRWQQGTTFTCAVMHEALHGHYTEKSVSKSPGK | 21.2 |
| equine IgG4 N434H (antibody, part only; not given: Variable domains, not shown: another chain or arm of the molecule) constant: ASTTAPKVFPLASHSAATSGSTVALGCLVSSYFPEPVTVSWNSGALTSGVHTFPSVLQSSGLYSLSSMVTVPASSLKSQTYICNVAHPASSTKVDKKIVIKECNGGCPAECLQVGPSVFIFPPKPKDVLMISRTPTVTCVVVDVGHDFPDVQFNWYVDGVETHTATTEPKQEQFNSTYRVVSVLPIQHKDWLSGKEFKCKVNNKALPAPVERTISKPTGQPREPQVYVLAPHRDELSKNKVSVTCLVKDFYPTDIDIEWKSNGQPEPETKYSTTPAQLDSDGSYFLYSKLTVETNRWQQGTTFTCAVMHEALHHHYTEKSVSKSPGK | 5.2 |
| equine IgG4 N434I (antibody, part only; not given: variable domains, not shown: another chain or arm of the molecule) constant: ASTTAPKVFPLASHSAATSGSTVALGCLVSSYFPEPVTVSWNSGALTSGVHTFPSVLQSSGLYSLSSMVTVPASSLKSQTYICNVAHPASSTKVDKKIVIKECNGGCPAECLQVGPSVFIFPPKPKDVLMISRTPTVTCVVVDVGHDFPDVQFNWYVDGVETHTATTEPKQEQFNSTYRVVSVLPIQHKDWLSGKEFKCKVNNKALPAPVERTISKPTGQPREPQVYVLAPHRDELSKNKVSVTCLVKDFYPTDIDIEWKSNGQPEPETKYSTTPAQLDSDGSYFLYSKLTVETNRWQQGTTFTCAVMHEALHIHYTEKSVSKSPGK | 40.6 |
| equine IgG4 N434K (antibody, part only; not given: variable domains, not shown: another chain or arm of the molecule) constant: ASTTAPKVFPLASHSAATSGSTVALGCLVSSYFPEPVTVSWNSGALTSGVHTFPSVLQSSGLYSLSSMVTVPASSLKSQTYICNVAHPASSTKVDKKIVIKECNGGCPAECLQVGPSVFIFPPKPKDVLMISRTPTVTCVVVDVGHDFPDVQFNWYVDGVETHTATTEPKQEQFNSTYRVVSVLPIQHKDWLSGKEFKCKVNNKALPAPVERTISKPTGQPREPQVYVLAPHRDELSKNKVSVTCLVKDFYPTDIDIEWKSNGQPEPETKYSTTPAQLDSDGSYFLYSKLTVETNRWQQGTTFTCAVMHEALHKHYTEKSVSKSPGK | 42.8 |
